Key:
Test in all cases: Western blot, E. coli lysate, reducing gel
[1] = target: T1, CDH3 protein Fragment 2 (positions 132 to 348 of SEQ ID NO: 38) (human, UniProt P22223 132-348)
T1 construct: Expressed in E. coli Rosetta 2; the lysate was run on a reducing gel and blotted; not shown: N-terminal fusion part supplied by the vector pCold TF (His tag, trigger factor, linker to the KpnI site)
Procedure: (§1) The above-described Escherichia coli lysate, in which each of the above-mentioned CDH3 protein fragments had been expressed, was charged to 5%-20% gradient gel (Bio-Rad) under reductive conditions, followed by performing electrophoresis. Thereafter, using a blotting device (Bio-Rad), the resultant was transferred on Immobilon P membrane (Millipore). The transfer membrane was lightly washed with TBS-T (0.05% Tween 20, TBS), and it was then shaken in […] BSA-containing TBS for 1 hour. […] The obtained mixture was shaken for 1 hour. Thereafter, the reaction product was washed with TBS-T, and a HRP-anti-mouse IgG antibody (GE Healthcare Biosciences) diluted with 10% Block Ace-containing TBS-T was added thereto, followed by shaking the obtained mixture for 1 hour. Subsequently, the reaction product was washed with TBS-T. Using ECL-Plus (GE Healthcare Biosciences), color development was detected with X-ray film RX-u (Fujifilm Corporation) in accordance with the instructions provided by the manufacturer.

[2] = target: T2, CDH3 protein Fragment 3 (positions 237 to 461 of SEQ ID NO: 38) (human, UniProt P22223 237-461)
T2 construct: Expressed in E. coli Rosetta 2; the lysate was run on a reducing gel and blotted; not shown: N-terminal fusion part supplied by the vector pCold TF (His tag, trigger factor, linker to the KpnI site)
T2 sequence (P22223 237-461 limits assumed): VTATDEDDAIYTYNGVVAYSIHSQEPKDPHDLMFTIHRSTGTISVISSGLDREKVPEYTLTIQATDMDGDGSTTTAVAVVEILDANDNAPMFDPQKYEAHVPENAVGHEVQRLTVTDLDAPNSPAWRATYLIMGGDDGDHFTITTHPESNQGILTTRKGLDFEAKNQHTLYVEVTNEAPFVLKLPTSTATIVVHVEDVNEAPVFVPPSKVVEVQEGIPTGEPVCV
Procedure: as §1

[3] = target: T3, CDH3 protein Fragment 4 (positions 349 to 550 of SEQ ID NO: 38) (human, UniProt P22223 349-550)
T3 construct: Expressed in E. coli Rosetta 2; the lysate was run on a reducing gel and blotted; not shown: N-terminal fusion part supplied by the vector pCold TF (His tag, trigger factor, linker to the KpnI site)
T3 sequence (P22223 349-550 limits assumed): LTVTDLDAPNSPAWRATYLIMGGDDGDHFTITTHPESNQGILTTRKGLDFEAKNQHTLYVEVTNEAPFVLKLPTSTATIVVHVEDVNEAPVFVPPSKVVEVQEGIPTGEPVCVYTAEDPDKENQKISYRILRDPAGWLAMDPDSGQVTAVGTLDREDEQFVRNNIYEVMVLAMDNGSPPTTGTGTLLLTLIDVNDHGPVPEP
Procedure: as §1

[4] = target: T4, CDH3 protein Fragment 5 (positions 462 to 654 of SEQ ID NO: 38) (human, UniProt P22223 462-654)
T4 construct: Expressed in E. coli Rosetta 2; the lysate was run on a reducing gel and blotted; not shown: N-terminal fusion part supplied by the vector pCold TF (His tag, trigger factor, linker to the KpnI site)
T4 sequence (P22223 462-654 limits assumed): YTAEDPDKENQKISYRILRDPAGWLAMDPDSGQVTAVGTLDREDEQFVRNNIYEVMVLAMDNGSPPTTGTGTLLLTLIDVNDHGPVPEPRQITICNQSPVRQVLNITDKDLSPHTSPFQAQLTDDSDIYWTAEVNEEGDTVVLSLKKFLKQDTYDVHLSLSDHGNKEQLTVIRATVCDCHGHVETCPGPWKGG
Procedure: as §1

T1 sequence (P22223 132-348 limits assumed): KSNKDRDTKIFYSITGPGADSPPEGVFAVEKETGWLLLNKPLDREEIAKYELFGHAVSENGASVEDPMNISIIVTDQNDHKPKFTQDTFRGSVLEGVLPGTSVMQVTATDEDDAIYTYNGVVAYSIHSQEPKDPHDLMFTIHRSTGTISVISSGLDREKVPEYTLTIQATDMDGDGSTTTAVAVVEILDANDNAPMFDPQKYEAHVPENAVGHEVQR

binding result [1]: no binding
binding result [2]: no binding
binding result [3]: no binding
binding result [4]: no binding
B1: mouse antibody PPAT-057-17 (antibody, V domains shown)
VH: QVKLEESGPVLVAPSQSLSITCTVSGFSLTSYGVHWIRHPPGKGLEWLGVIWAGGNTIYNSALMSRLNISKDNSKSQVFLKMNSLQSDDSAMYYCAKPHYGDYAGFYALDHWGQGTSVTVSS
VL: DVQITQSPSYLAASPGETININCRASKRISKYLAWYQEKPGKTNRLLIYSGSTLQSGIPSRFSGSGSGTDFTLTISSLEPEDFAMYYCQQHNEYPWTFGGGTKLEIK
notes: Mouse monoclonal IgG from a hybridoma; kappa L chain primers were used

Reference: patent US20140221620A1 (PERSEUS PROTEOMICS, published 2014)
